# Assay results from patent US20160251438A1 (LUDWIG INSTITUTE FOR CANCER RESEARCH, published 2016).
# B1: LHG-10 (antibody, human IgG1, V domains shown)
# VH: EVQLVQPGAELRNSGASVKVSCKASGYRFTSYYIDWVRQAPGQGLEWMGRIDPEDGGTKYAQKFQGRVTFTADTSTSTAYVELSSLRSEDTAVYYCARNEWETVVVGDLMYEYEYWGQGTQVTVSS
# VL: DIQMTQSPTSLSASLGDRVTITCQASQSISSYLAWYQQKPGQAPKLLIYGASRLQTGVPSRFSGSGSGTSFTLTISGLEAEDAGTYYCQQYDSLPVTFGQGTKVELK
# notes: llama-derived V regions in a full human IgG1
# Key:
# [1] = target: T1, mGARP/hTGF-β1 complex on the cell surface (mouse; human, UniProt G3XA59 18-663); assay: FACS, 293T, HA-tagged mouse GARP + hTGFB1
# T1 construct: whole, on cells; also called cells transfected with hTGFB1 and mGARP
# [2] = target: T2, chimera 141 / hTGF-β1 complex on the cell surface (Mus musculus, UniProt G3XA59); assay: FACS, 293T, HA-tagged construct + hTGFB1
# T2 construct: N-terminal part
# [3] = target: T3, chimera 207 / hTGF-β1 complex on the cell surface (Mus musculus, UniProt G3XA59); assay: FACS, 293T, HA-tagged construct + hTGFB1
# T3 construct: N-terminal part
# [4] = target: T4, chimera 332 / hTGF-β1 complex on the cell surface (Mus musculus, UniProt G3XA59); assay: FACS, 293T, HA-tagged construct + hTGFB1
# T4 construct: N-terminal part
# [5] = target: T5, chimera 265 / hTGF-β1 complex on the cell surface (Mus musculus, UniProt G3XA59); assay: FACS, 293T, HA-tagged construct + hTGFB1
# T5 construct: N-terminal part
# T5 sequence (G3XA59 other isoform, or with tags, fused parts or gaps mutant limits assumed, chain 1 of 2): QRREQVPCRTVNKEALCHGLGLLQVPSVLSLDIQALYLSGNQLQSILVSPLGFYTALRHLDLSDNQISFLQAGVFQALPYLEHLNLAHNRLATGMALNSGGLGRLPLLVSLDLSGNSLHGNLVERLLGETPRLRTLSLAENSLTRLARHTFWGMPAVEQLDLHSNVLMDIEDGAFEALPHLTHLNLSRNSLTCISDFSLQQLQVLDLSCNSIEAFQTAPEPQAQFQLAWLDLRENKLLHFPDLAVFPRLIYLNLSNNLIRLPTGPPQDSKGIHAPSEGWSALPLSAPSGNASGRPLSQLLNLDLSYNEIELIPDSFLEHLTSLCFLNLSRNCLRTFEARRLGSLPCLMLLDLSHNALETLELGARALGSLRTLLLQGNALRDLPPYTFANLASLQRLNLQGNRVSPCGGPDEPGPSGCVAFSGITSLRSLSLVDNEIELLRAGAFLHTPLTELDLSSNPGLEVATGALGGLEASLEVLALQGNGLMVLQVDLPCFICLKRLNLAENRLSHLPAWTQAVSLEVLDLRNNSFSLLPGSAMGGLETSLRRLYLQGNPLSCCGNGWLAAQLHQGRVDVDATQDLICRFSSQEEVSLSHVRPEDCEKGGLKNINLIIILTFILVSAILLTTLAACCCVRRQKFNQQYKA
# T5 sequence (TGF-β1, as listed by the source mutant limits assumed, chain 2 of 2): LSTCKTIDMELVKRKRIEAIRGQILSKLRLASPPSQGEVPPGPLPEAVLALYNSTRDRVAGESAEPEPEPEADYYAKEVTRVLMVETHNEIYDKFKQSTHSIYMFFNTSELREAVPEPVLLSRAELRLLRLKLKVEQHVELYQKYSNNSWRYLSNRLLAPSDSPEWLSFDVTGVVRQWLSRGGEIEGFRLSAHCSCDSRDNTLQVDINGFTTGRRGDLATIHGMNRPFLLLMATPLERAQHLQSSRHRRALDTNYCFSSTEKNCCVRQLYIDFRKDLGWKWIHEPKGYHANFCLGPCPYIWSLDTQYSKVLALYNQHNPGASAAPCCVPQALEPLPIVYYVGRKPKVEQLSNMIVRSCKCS
# [6] = target: GARP / TGF-β1 Y284A complex (human, UniProt Q14392 20-662; P01137 30-390); assay: FACS titration on transfected 293T; EC50 mutant / EC50 WT [cont.) B]
# Method: (§1) Intensities of staining at each concentration of antibody relative to the maximal intensity measured at 5 μg/ml were determined as follows:
# (§2) The relative staining intensities were plotted according to the concentration of antibody used for staining, and a non-linear regression analysis was used with the Prism software to determine an EC₅₀ value for binding of the antibody to the WT and to each of the various mutant GARP/TGF-β1 complexes. If the ratio between the EC₅₀ measured on the mutant and the EC₅₀ measured on the WT was >2, the mutation was considered to induce a reduced avidity for binding by the antibody. The ratio of EC₅₀ (mutant vs WT) for MHG-8 and LHG-10 are indicated below each mutation on FIG. 19, parts A and B, respectively.
# [7] = target: GARP / TGF-β1 Q272Y complex (human, UniProt Q14392 20-662; P01137 30-390); assay: as above
# Method: as §1, §2
# [8] = target: GARP G118L/G119L / TGF-β1 complex (human, UniProt Q14392 20-662; P01137 30-390); assay: as above
# Method: as §1, §2
# [9] = target: GARP / TGF-β1 R58A complex (human, UniProt Q14392 20-662; P01137 30-390); assay: as above
# Method: as §1, §2
# [10] = target: GARP R170A / TGF-β1 complex (human, UniProt Q14392 20-662; P01137 30-390); assay: as above
# Method: as §1, §2
# [11] = target: GARP / TGF-β1 E146R complex (human, UniProt Q14392 20-662; P01137 30-390); assay: as above
# Method: as §1, §2
# [12] = target: GARP S138G / TGF-β1 complex (human, UniProt Q14392 20-662; P01137 30-390); assay: as above
# Method: as §1, §2
# [13] = target: GARP R143Y / TGF-β1 complex (human, UniProt Q14392 20-662; P01137 30-390); assay: as above
# GARP R143Y / TGF-β1 complex, sequence (Q14392 20-662 R143Y limits assumed, chain 1 of 2): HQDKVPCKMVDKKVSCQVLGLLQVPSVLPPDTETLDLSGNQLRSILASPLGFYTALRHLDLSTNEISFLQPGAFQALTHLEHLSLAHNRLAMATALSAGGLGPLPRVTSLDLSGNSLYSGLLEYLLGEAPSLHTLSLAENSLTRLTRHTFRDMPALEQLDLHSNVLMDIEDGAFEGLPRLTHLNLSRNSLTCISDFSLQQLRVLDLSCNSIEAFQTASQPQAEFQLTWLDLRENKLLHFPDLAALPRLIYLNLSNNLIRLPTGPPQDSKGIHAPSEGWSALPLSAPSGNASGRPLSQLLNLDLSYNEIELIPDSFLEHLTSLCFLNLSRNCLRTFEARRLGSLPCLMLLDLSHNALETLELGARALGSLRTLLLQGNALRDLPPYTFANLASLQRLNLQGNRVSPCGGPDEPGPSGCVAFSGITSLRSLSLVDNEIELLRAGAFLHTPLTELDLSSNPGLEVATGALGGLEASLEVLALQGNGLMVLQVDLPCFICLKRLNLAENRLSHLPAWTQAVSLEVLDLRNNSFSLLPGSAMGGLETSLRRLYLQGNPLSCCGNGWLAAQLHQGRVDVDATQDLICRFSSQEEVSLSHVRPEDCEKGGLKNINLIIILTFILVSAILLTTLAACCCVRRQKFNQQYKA
# GARP R143Y / TGF-β1 complex, sequence (P01137 30-390 limits assumed, chain 2 of 2): as the sequence (TGF-β1, as listed by the source mutant limits assumed, chain 2 of 2) above
# Method: as §1, §2
# [14] = target: GARP / TGF-β1 Y336A complex (human, UniProt Q14392 20-662; P01137 30-390); assay: FACS 293T, 5 ug/ml, normalised to anti-HA
# Source text: (§3) Resolution of the crystal structure of MHG-8 Fab/GARP/TGF-β1 complexes and analysis with the CONTACT software allowed the identification of 22 amino-acids in GARP, 8 amino-acids in LAP and 6 amino-acids in mature TGF-β1 that are located less than 5 Å away from an amino-acid of the light or heavy chain of the MHG-8 Fab (Tables 7a, b and c, and Table 8). Directed mutagenesis was used to construct plasmids encoding HA-tagged forms of GARP or TGF-β1 that are mutated at one, two, or three of these 36 positions (all mutations constructed are indicated in Table 8). […] Antibodies were used at a saturating concentration of 5 μg/ml for labeling. Binding of each antibody to a given mutant GARP/TGF-β1 complex was compared to their binding to wild type (WT) complexes, by determining an I_{m/wt} value (i.e. intensity of binding to mutant by comparison to WT). This value was calculated as follows: I_{m/wt} of antibody X=[Geom on mutant−Geom on control]/[Geom on WT−Geom on control]
# (§4) The level of residual binding of anti-GARP or anti-LAP antibodies to each mutant was then calculated by comparison to WT, taking into account the expression levels of mutant and WT forms as measured with anti-HA antibodies. Residual binding was calculated as follows: Residual binding by an anti-GARP or anti-LAP antibody=[I_{m/wt} with anti-GARP or anti-LAP antibody]/[I_{m/wt} with anti-HA antibody]
# [15] = target: GARP Y137H/S138G/G139N / TGF-β1 complex (human, UniProt Q14392 20-662; P01137 30-390); assay: FACS 293T, 5 ug/ml, normalised to anti-HA
# GARP Y137H/S138G/G139N / TGF-β1 complex, sequence (Q14392 20-662 Y137H/S138G/G139N limits assumed, chain 1 of 2): as the sequence (Q14392 20-662 R143Y limits assumed, chain 1 of 2) above, with Y118H, S119G, G120N, Y124R counted along it
# GARP Y137H/S138G/G139N / TGF-β1 complex, sequence (P01137 30-390 limits assumed, stated change not applied, chain 2 of 2): as the sequence (TGF-β1, as listed by the source mutant limits assumed, chain 2 of 2) above
# Source text: as §3, §4
# [16] = target: GARP / TGF-β1 K338E complex (human, UniProt Q14392 20-662; P01137 30-390); assay: FACS 293T, 5 ug/ml, normalised to anti-HA
# Source text: as §3, §4
# [17] = target: GARP T162D / TGF-β1 complex (human, UniProt Q14392 20-662; P01137 30-390); assay: FACS 293T, 5 ug/ml, normalised to anti-HA
# GARP T162D / TGF-β1 complex, sequence (Q14392 20-662 T162D limits assumed, chain 1 of 2): as the sequence (Q14392 20-662 R143Y limits assumed, chain 1 of 2) above, with Y124R, T143D counted along it
# GARP T162D / TGF-β1 complex, sequence (P01137 30-390 limits assumed, chain 2 of 2): as the sequence (TGF-β1, as listed by the source mutant limits assumed, chain 2 of 2) above
# Source text: as §3, §4
binder,measurement,setting,value
B1,binding result,[1],no binding
same,binding result,[2],no binding
same,binding result,[3],no binding
same,binding result,[4],no binding
same,binding result,[5],no binding
same,Ratio of EC50 (mutant / wt),[6],1.9
same,Ratio of EC50 (mutant / wt),[7],0.9
same,Ratio of EC50 (mutant / wt),[8],0.8
same,Ratio of EC50 (mutant / wt),[9],1.5
same,Ratio of EC50 (mutant / wt),[10],1.5
same,Ratio of EC50 (mutant / wt),[11],0.8
same,Ratio of EC50 (mutant / wt),[12],0.6
same,Ratio of EC50 (mutant / wt),[13],1.6
same,residual binding (% of WT),[14],56%
same,residual binding (% of WT),[15],6%
same,residual binding (% of WT),[16],15%
same,residual binding (% of WT),[17],49%
